{"source": "patent US20060058505A1", "about": "“Nucleic acid and polypeptide linked to breast cancer and uses therefor” (priority 2001, published 2006)", "molecules": {"B1": {"name": "δ-2a-N205: GST fusion of truncated G3BP-2a peptide; number is the amino acid at the truncation site (protein, UniProt Q9UN86 1-205, looked up, fragment)", "chain": "MVMEKPSPLLVGREFVRQYYTLLNKAPEYLHRFYGRNSSYVHGGVDASGKPQEAVYGQNDIHHKVLSLNFSECHTKIRHVDAHATLSDGVVVQVMGLLSNSGQPERKFMQTFVLAPEGSVPNKFYVHNDMFRYEDEVFGDSEPELDEESEDEVEEEQEERQPSPEPVQENANSGYYEAHPVTNGIEEPLEESSHEPEPEPESETK", "modifications": "isoform 2a GST fusion", "notes": "GST fusion of truncated G3BP-2a peptide; number is the amino acid at the truncation site"}, "B2": {"name": "δ-2a-N329: GST fusion of truncated G3BP-2a peptide; number is the amino acid at the truncation site (protein, UniProt Q9UN86 1-329, looked up, fragment)", "chain": "MVMEKPSPLLVGREFVRQYYTLLNKAPEYLHRFYGRNSSYVHGGVDASGKPQEAVYGQNDIHHKVLSLNFSECHTKIRHVDAHATLSDGVVVQVMGLLSNSGQPERKFMQTFVLAPEGSVPNKFYVHNDMFRYEDEVFGDSEPELDEESEDEVEEEQEERQPSPEPVQENANSGYYEAHPVTNGIEEPLEESSHEPEPEPESETKTEELKPQVEEKNLEELEEKSTTPPPAEPVSLPQEPPKAFSWASVTSKNLPPSGTVSSSGIPPHVKAPVSQPRVEAKPEVQSQPPRVREQRPRERPGFPPRGPRPGRGDMEQNDSDNRRIIRYPD", "modifications": "isoform 2a GST fusion", "notes": "as for B1"}, "B3": {"name": "δ-2a-N257: GST fusion of truncated G3BP-2a peptide; number is the amino acid at the truncation site (protein, UniProt Q9UN86 1-257, looked up, fragment)", "chain": "MVMEKPSPLLVGREFVRQYYTLLNKAPEYLHRFYGRNSSYVHGGVDASGKPQEAVYGQNDIHHKVLSLNFSECHTKIRHVDAHATLSDGVVVQVMGLLSNSGQPERKFMQTFVLAPEGSVPNKFYVHNDMFRYEDEVFGDSEPELDEESEDEVEEEQEERQPSPEPVQENANSGYYEAHPVTNGIEEPLEESSHEPEPEPESETKTEELKPQVEEKNLEELEEKSTTPPPAEPVSLPQEPPKAFSWASVTSKNLPPS", "modifications": "isoform 2a GST fusion", "notes": "as for B1"}, "B4": {"name": "δ-2a-N146: GST fusion of truncated G3BP-2a peptide including the N-terminal amino acids 1 to 146 (NTF2-like domain) (protein, UniProt Q9UN86 1-146, looked up, fragment)", "chain": "MVMEKPSPLLVGREFVRQYYTLLNKAPEYLHRFYGRNSSYVHGGVDASGKPQEAVYGQNDIHHKVLSLNFSECHTKIRHVDAHATLSDGVVVQVMGLLSNSGQPERKFMQTFVLAPEGSVPNKFYVHNDMFRYEDEVFGDSEPELD", "modifications": "isoform 2a GST fusion"}, "B5": {"name": "full length G3BP-2a: full length G3BP-2a expressed as GST-fusion protein (protein)", "chain": "MVMEKPSPLLVGREFVRQYYTLLNKAPEYLHRFYGRNSSYVHGGVDASGKPQEAVYGQNDIHHKVLSLNFSECHTKIRHVDAHATLSDGVVVQVMGLLSNSGQPERKFMQTFVLAPEGSVPNKFYVHNDMFRYEDEVFGDSEPELDEESEDEVEEEQEERQPSPEPVQENANSGYYEAHPVTNGIEEPLEESSHEPEPEPESETKTEELKPQVEEKNLEELEEKSTTPPPAEPVSLPQEPPKAFSWASVTSKNLPPSGTVSSSGIPSHVKAPVSQPRVEAKPEVQSQPPRVREQRPRERPGFPPRGPRPGRGDMEQNDSDNRRIIRYPDSHQLFVGNLPHDIDENELKEFFMSFGNVVELRINTKGVGGKLPNFGFVVFDDSEPVQRILIAKPIMFRGEVRLNVEEKKTRAARERETRGGGDDRRDIRRNDRGPGGPRGIVGGGMMRDRDGRGPPPRGGMAQKLGSGRGTGQMEGRFTGQRR", "modifications": "left off: a dimerising Fc or GST", "notes": "full length G3BP-2a expressed as GST-fusion protein"}}, "data": [{"molecular_target": "T1, His-tagged N-terminal SH3 domain containing region of rasGAP^120 (Homo sapiens, UniProt P20936)", "T1 construct": "containing amino acids 1-356 which includes the full SH3 domain of rasGAP^120; made in house; host or cells: E. coli (DH5), IPTG induction; used as bacterial lysate", "T1 sequence (P20936 1-356)": "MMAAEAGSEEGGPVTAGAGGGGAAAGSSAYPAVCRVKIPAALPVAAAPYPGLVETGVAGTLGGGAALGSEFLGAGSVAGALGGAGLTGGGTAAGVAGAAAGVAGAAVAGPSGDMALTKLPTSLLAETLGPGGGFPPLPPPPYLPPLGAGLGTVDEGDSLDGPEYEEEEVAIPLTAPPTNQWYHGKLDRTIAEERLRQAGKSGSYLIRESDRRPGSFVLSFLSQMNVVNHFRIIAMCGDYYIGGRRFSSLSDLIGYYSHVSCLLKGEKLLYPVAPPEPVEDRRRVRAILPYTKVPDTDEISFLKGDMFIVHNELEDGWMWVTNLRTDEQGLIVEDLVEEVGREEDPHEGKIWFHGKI", "assay": "bead binding assay of GST-G3BP peptides with Western detection by anti-His antibody", "conditions": "GST fusions bound to glutathione beads", "source_text": "However, the region within the G3BPs responsible for the observed interaction with rasGAP^120 has not been thoroughly investigated. Initially it was presumed that the interactions would be facilitated through proline rich motifs that are known to interact with SH3 domains (Lee et al. 1996). To further map the interactions between G3BPs and the SH3 domain of rasGAP^120 several GST-G3BP peptide fusions were expressed (FIG. 4) and probed in bead binding assays with His-tagged N-terminal rasGAP^120 peptides. The G3BP peptide constructs were designed to represent truncated proteins containing single or multiple domains as well as peptides that would contain isolated proline rich motifs (FIG. 4). In the assays GST-G3BP peptides are bound to glutathione beads and His-tagged N-terminal rasGAP^120 is added to the different constructs. Specific protein-protein interactions between the G3BP peptides and the SH3 domain of rasGAP^120 are detected by running the bound proteins on a Western blot and identifying His-tagged rasGAP^120 by probing with an anti-His antibody. […] No interactions were detected with the other domains of G3BP including the Acid-Rich domain, the RRM or the RGG-rich domain (FIG. 4).\nTruncated cDNAs representing either N-terminal or C-Terminal sequences of G3BP-1 and G3BP-2a (FIG. 2) were subcloned into bacterial GST-fusion expression vectors (pGex, Pharmacia) so that the recombinant fusion proteins could be expressed and used in bead binding assays (see below) to identify the sub-domains of G3BP that interact with the SH3 domain of rasGAP^120. The vectors containing the recombinant fusion protein construct were transformed into competent DH5′ E. Coli and expressed by IPTG induction. To collect the recombinant proteins the cells were washed and resuspended in PBS and sonicated to release the fusion proteins.\nThe N-terminal domain of rasGAP^120 (kindly provided by Prof. I.G. Macara, University of Virginia) containing amino acids 1-356 which includes the full SH3 domain of rasGAP^120 was subcloned into proEX HT bacterial expression vector (Life Technologies) and expressed as described above.\nGlutathione columns (Pharmacia) were blocked overnight at 4° C. in 1× binding buffer A (50 mM HEPES pH 7.4, 100 mM NaCl, 5 mM MgCl2, 50 mg/ml BSA, 1 mM DTT, 1 mM PMFS and protease inhibitors (Protease inhibitor cocktail, Roche Diagnostics, Australia). The following day the columns were washed twice with binding buffer A. Bacterial lysates containing either expressed GST alone or GST fusion proteins were diluted 1:1 with 2× binding buffer A and added to the equilibrated GST columns, the columns were gently rocked overnight at 4° C. To remove excess proteins the columns were washed twice in 1× binding buffer A. Bacterial lysates containing the His-tagged N-terminal of rasGAP^120 protein were combined with an equal volume of 2× binding buffer A containing 200 mg/ml BSA and 0.1% Tween. In addition to the high concentration of BSA, which is used to block non-specific protein-protein interactions, Ethidium bromide was added to a final concentration of 25 ng/ml to abrogate non-specific interactions caused by excess bacterial genomic DNA and bacterial RNA. This mix was then added to the pre-bound GST columns (above) and allowed to bind for 2 hrs at 4° C. The columns were then washed three times with binding buffer B (50 mM HEPES pH 7.4, 200 mM NaCl, 5 mM MgCl2, 1 mM DTT, 1 mM PMFS and protease inhibitors).\nOne μl of the GST beads complexed with proteins, as described above, was added to an equal volume of 2×PAGE loading dye, heated for 5 mins at 95° C. and loaded onto a 7.5% Polyacrylamide gel and run at 100V for 3 hours. The proteins were transferred to Nitrocellulose and probed with anti-His antibodies (Tetra-His antibody, Qiagen). Columns, which were bound with GST alone, were used as negative controls to ensure no non-specific His-tagged N-terminal rasGAP^120 remained associated with the columns. […]", "values": [{"molecule": "δ-1-N309: GST fusion of truncated G3BP-1 peptide; number is the amino acid at the truncation site", "interaction with the N-terminal SH3 domain containing region of rasGAP^120": "interact"}, {"molecule": "δ-1-N229: GST fusion of truncated G3BP-1 peptide; number is the amino acid at the truncation site", "interaction with the N-terminal SH3 domain containing region of rasGAP^120": "interact"}, {"molecule": "full length G3BP-1: full length G3BP-1 expressed as GST-fusion protein", "interaction with the N-terminal SH3 domain containing region of rasGAP^120": "interact"}, {"molecule": "B1", "interaction with the N-terminal SH3 domain containing region of rasGAP^120": "interacted"}, {"molecule": "B2", "interaction with the N-terminal SH3 domain containing region of rasGAP^120": "interacted"}, {"molecule": "B3", "interaction with the N-terminal SH3 domain containing region of rasGAP^120": "interacted"}, {"molecule": "B4", "interaction with the N-terminal SH3 domain containing region of rasGAP^120": "interacted"}, {"molecule": "B5", "interaction with the N-terminal SH3 domain containing region of rasGAP^120": "interacted"}]}, {"molecular_target": "T2, HLA-A*0201 molecule on T2 cells", "T2 construct": "whole, on cells", "assay": "T2 binding assay, HLA expression by flow cytometry", "conditions": "not given", "values": [{"molecule": "KLPNFGFVV", "note": "[Peptide 1 of G3BP-2 (KLPNFGFVV)]", "binding result": "binds"}, {"molecule": "IMFRGEVRL", "note": "[Peptide 2 of G3BP-2 (IMFRGEVRL)]", "binding result": "binds"}]}, {"test_system": "peripheral blood mononuclear cells (PBMC) from healthy individuals", "assay": "CTL responses induced by DC in PBMC, tested in IFN-γ ELISPOT", "format": "cell-based", "conditions": "after one (and two) round of stimulation, 2 separate donors", "procedure": "The various peptides were evaluated for the generation of CTL responses induced by DC in peripheral blood mononuclear cells (PBMC) from healthy individuals and tested in ELISPOT (Gonzalez et al, 2000). T2 cells (target) pulsed with Peptide 1 or no peptide were labelled with ^51Cr and incubated with clone IH7 (effector) at various ratios. After 4 hours, ^51Cr released from lysed cells was measured and the percentage of specific lysis calculated with the formula: 100×(experimental release−spontaneous release)/(total release−spontaneous release). Total release was obtained with detergent lysis of labelled target.\nConfirming this finding, we generated Peptide 1 specific CTL clones capable of identifying peptide-loaded targets in a classical chromium release assay (FIG. 11), the desired profile for an efficient anti-tumor response (Lopez and Hart, 2002), incorporated herein by reference. These clones will be instrumental in the evaluation of the expression of this antigen in cancer cells, allowing the formal evaluation of this molecule as a TAA.", "values": [{"molecule": "KLPNFGFVV (Human) [Peptide 1]", "CTL responses: IFN-γ producing peptide specific CD8+ lymphocytes": "Strong responses"}]}, {"molecular_target": "T3, HLA-A*0201 molecule (Homo sapiens, UniProt P04439, D140Y/D185E/D98H/E176V/E277Q/G131W/G231S/I119V/I121R/I166T/I218V/L300P/L318F/N151K/N90K/P208A/P217A/Q86G/Q94H/R138H/R169H/T345S)", "T3 construct": "endogenous in cells; host or cells: T2 cells", "assay": "MHC/peptide binding assay (T2 binding assay)", "conditions": "reference influenza MP 58-66 peptide", "values": [{"molecule": "KLPNFGFVV (Human) [Peptide 1]", "binding to the HLA-A*0201 molecule": "affinity equal to that of the control influenza MP 58-66 peptide"}, {"molecule": "IMFRGEVRL (human) [Peptide 2]", "binding to the HLA-A*0201 molecule": "affinity equal to that of the control influenza MP 58-66 peptide"}]}]}
